From US20150119254, “NUCLEIC ACID FRAGMENT BINDING TO TARGET PROTEIN” (RIKEN, published 2015) come the findings set out here.

By Kd is commonly meant the concentration at which binding is half-saturated. Read a low Kd as tighter binding.

Series [1] concerns the target T1, VEGF-165 (Homo sapiens, UniProt P15692-4 P15692-4:27-191). As to the kind of experiment: SPR; 10 nM VEGF-165, 930 s. Conditions: tags: PeproTech; chain copies: 2 (dimer, concentrations stated in terms of dimer). How it is done: FIGS. 15A to 15C show the SPR sensorgrams wherein 2.5 nM, 5 nM, or 10 nM VEGF-165 was injected. […] Each sensorgram was normalized to the molecular weight of a DNA fragment bound with SPR, the molecular weight of an injected protein, and the amount of the SPR-bound DNA fragment immobilized (RU). The injection time is 480 seconds. The dissociation time is 480 seconds.
(§1) Five types of sequences were selected from the sequences shown in Table 8 and analyzed for their VEGF-165-binding ability by surface plasmon resonance (SPR) assay using BIACORE 3000 (GE Healthcare Japan Corp.) and 57-mer DNA fragments (Table 9) truncated at a primer region. A previously reported 57-mer DNA fragment comprising the DNA sequence of VEGF-165 was also prepared and analyzed as a control.
(In general: Surface plasmon resonance follows binding to a sensor surface in real time, without labels.)

In series [2] the target is T1, VEGF-165. Description: SPR; existing aptamer control; 25 C. Conditions: tags: PeproTech; chain copies: 2 (dimer, concentrations stated in terms of dimer).
Series [3] concerns the target T1, VEGF-165. As to the kind of experiment: SPR; random control. The settings on record: tags: PeproTech; chain copies: 2 (dimer, concentrations stated in terms of dimer).
Series [4] deals with T1, VEGF-165. As to the kind of experiment: SPR; printed as uM, evidently pM; existing aptamer control. Conditions: tags: PeproTech; chain copies: 2 (dimer, concentrations stated in terms of dimer). How it is done: as §1
(§2) The DNA fragments used in the assay were subjected to curve fitting using BiaEvaluation software attached to Biacore 3000 and reaction models of Langmuir with mass transfer.

Series [5] addresses T2, IFN-gamma (UniProt P01579 P01579:24-166). As to the kind of experiment: SPR; 150 nM IFN-gamma, 930 s. The settings on record: tags: PeproTech; chain copies: 2. As to the method:
FIGS. 19A to 19C show the SPR sensorgrams wherein 50 nM, 100 nM, or 150 nM IFN-γ was injected. […] Each sensorgram was normalized to the molecular weight of a DNA fragment bound with SPR, the molecular weight of an injected protein, and the amount of the SPR-bound DNA fragment immobilized (RU). The injection time is 480 seconds. The dissociation time is 480 seconds.
Five types of sequences were selected from the sequences shown in Table 12 and analyzed for their IFN-γ-binding ability by surface plasmon resonance assay and 57-mer DNA fragments (Table 13) truncated at a primer region. A previously reported 57-mer DNA fragment comprising the DNA sequence of IFN-γ was also prepared and analyzed as a control.

The target in series [6] is T2, IFN-gamma. As to the kind of experiment: SPR; Bound 0.14. The settings on record: tags: PeproTech; chain copies: 2.
Series [7] has as its target T1, VEGF-165. Description: SPR; 25 C. Conditions: tags: PeproTech; chain copies: 2 (dimer, concentrations stated in terms of dimer). As to the method:
as §1, §2

Series [8] concerns the target T1, VEGF-165. As to the kind of experiment: SPR; 25 C. Conditions: tags: PeproTech; chain copies: 2 (dimer, concentrations stated in terms of dimer). This is another data set of the same source.
For series [9], the target named is T1, VEGF-165. Description: SPR; previously reported aptamer control. The settings on record: tags: PeproTech; chain copies: 2 (dimer, concentrations stated in terms of dimer); label: 5' biotin-dT. How it is done:
For comparison, 98-mer (full length) N43Ds-09-1, full-length DNA fragments N43Ds-09-1(AT) and N43Ds-09-1(G) with the artificial base Ds replaced with a natural base, and a control DNA fragment reported as a VEGF-binding DNA aptamer (VEGF binding DNA 35, 35 mer) were also assayed under the same conditions. As in the full length binding analysis of Example 2, each DNA fragment having biotinylated T added to the end for the direct immobilization of the DNA fragment onto an SA chip (GE Healthcare Japan Corp.) was prepared by chemical synthesis and gel purification. For the immobilization of each DNA fragment onto the sensor chip, a DNA solution diluted with a PBS solution to 25 nM was subjected to folding treatment (90° C. for 3 min→60° C. for 3 min→25° C.), and Nonidet P-40 was then added thereto at a final concentration of 0.05%. The resulting DNA solution (5 μl; corresponding to 1 min) was injected to the SA chip at a flow rate of 5 μl/min to immobilize the DNA fragment onto the chip. […]
The interaction between the immobilized DNA fragment and VEGF-165 was detected under monitoring by the injection of 12.5 nM, 25 nM, 37.5 nM, 50 nM, 62.5 nM, and 75 nM VEGF-165 solutions (diluted with buffer solution A; in terms of dimer) at the Kinetic Injection mode. […]

Series [10] deals with T2, IFN-gamma. As to the kind of experiment: SPR; existing aptamer control. Conditions: tags: PeproTech; chain copies: 2.

T1 sequence (P15692 other isoform, or with tags, fused parts or gaps): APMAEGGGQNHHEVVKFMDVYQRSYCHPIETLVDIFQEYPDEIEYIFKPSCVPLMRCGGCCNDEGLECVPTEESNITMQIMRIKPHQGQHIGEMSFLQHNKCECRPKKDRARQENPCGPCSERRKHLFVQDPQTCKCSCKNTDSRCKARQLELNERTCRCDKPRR
T2 sequence (P01579 24-166, one chain of several): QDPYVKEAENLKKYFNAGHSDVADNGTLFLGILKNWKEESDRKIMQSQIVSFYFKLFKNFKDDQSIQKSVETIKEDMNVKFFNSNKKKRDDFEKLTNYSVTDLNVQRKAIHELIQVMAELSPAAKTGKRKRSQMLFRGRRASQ

B1: VG02bA-57 (ssDNA)
DNA: ATCAGTCCACATACGCGGGGGTGTTGAAGGGTTAGTCGGAAGTAGTGTGTACAGAG
Molecule B1 displayed a binding signal in [1] of 0.31 bound ratio.

B2: VG01A-57 (ssDNA)
DNA: ATCAGTCCACAAAGTGCTGGGTCCGAATGGCGGGGGGTTAGGCCTCTTTGGGGCGG
Consider B2, for which the binding signal in series [1] was 0.37 bound ratio.

In series [2], CGATCGTATCAGTCCACAAGCCCGTCTTCCAGACAAGAGTGCAGGGC (ssDNA) [contVG-47] returned a Kd of 0.044 nM.

ATGCTAGAGCATTGCGTAGAAGCTTGATATGTTGCTGGCCCGGAC (ssDNA) [Random-45] had a binding signal in [3] of 0.01 bound ratio.

B3: contVG-57 (ssDNA)
DNA: TCTGTCAATCGATCGTATCAGTCCACAAGCCCGTCTTCCAGACAAGAGTGCAGGGC
For the molecule B3, in [4], the dissociation constant Kd worked out at 0.046 nM.

B4: IF04A-57 (ssDNA)
DNA: ATCAGTCCACTAATCAGGAAGAAGATAGGGTTTGTCTTATGTTGCCACGCTGGGAG
B4 had a binding signal in series [5] of 0.08 bound ratio.

ATCGTATCAGTCCACAAGCCCGTCTTCCAGACAAGAGTGCAGGGC (ssDNA) [contVG-45] showed a Kd in series [2] of 0.081 nM.

B5: VG08A-57 (ssDNA)
DNA: ATCAGTCCACGAGATGGATGGTAGTGGCCGAACGGGGGGGATGGAGAAGCTGGCTG
Regarding B5, the binding signal in series [1] was 0.01 bound ratio.

As for TCGGGTCATTTAATAATGTAGGTATGGGCTAGGCAGCTAGTGGAT (ssDNA) [IFd1-3A-45], the equilibrium dissociation constant (Kd) in series [6] is more than 200 nM.

B6: VG02aA-57 (ssDNA)
DNA: ATCAGTCCACATCGAGCGTGAGGTCCGAAAGGCGACTCTTATAACATCAAGTAATG
In turn, B6 showed a binding signal in [1] of 0.01 bound ratio.

B7: VG20A-57 (ssDNA)
DNA: TCAGTCCACGGTAAACTGAGTCCGAAGGGGCATGCAGTGAACCCGAATGGGTCCGG
B7: the equilibrium dissociation constant (Kd) in series [7] was 0.22 nM.

Take GTAAACTGCGTCCGAAGGGGCATGCAGTGAACCCGAATGGGTCCG (ssDNA) [VGd1-2A-45]: the Kd in [8] was 0.5 nM.

B8: IF07bA-57 (ssDNA)
DNA: ATCAGTCCACTCGGGTCGTTTAATAATGTAGGTATGGGCTAGGCAGCTAGTGGATG
Regarding B8, the binding signal in series [5] stood at 0.05 bound ratio.

In turn, TTGCACTCTGTGGGGGTGGACGGGCCGGGTAGATA (ssDNA) [VEGF binding DNA 35] yielded a Kd in series [9] of more than 100 nM.

B9: IF07aA-57 (ssDNA)
DNA: ATCAGTCCACTCCTTCTGTCATAGGGCAGGCGCATTTGGTGTAGAGTTTATCTTGG
In series [5], B9 displayed a binding signal of 0.19 bound ratio.

B10: IF11A-57 (ssDNA)
DNA: ATCAGTCCACCTATGTGGGTTGGATGGGGTGTATGTTAGTAGGGCTAAGGAGGTGG
Molecule B10 registered a binding signal in series [5] of 0.46 bound ratio.

B11: contIF-57 (ssDNA)
DNA: TTCTGTCAATCGATCGTATCAGTCCACAATGGGGTTGGTTGTGTTGGGTGTTGTGT
B11 displayed a Kd in [10] of 67 nM.
